Measured values published in patent publication US20160193316A1 (priority 1994, published 2016).

Tests used:
DRB1*1201 (DR5w12) = target: T1, DRB1*1201 (DR5w12) (Homo sapiens, UniProt P01903+P01911, A100R/A169T/D57E/D86V/F55L/H45Y/K41T/L162R/M171V/P40S/Q125H/Q178H/Q39Y/Q99D/R42G/S66L/T262R/V114A/V67L/W38E/Y59H/Y61H/Y89S); experiment: HLA class II peptide binding assay; conditions: for DR5w12 binding data: Table XIXb; for DR5w12 binding information: unit not given
T1 construct: endogenous in cells; host or cells: Herluf

DRB5*0101 (DR2w2β2) = target: T2, DRB5*0101 (DR2w2β2) (Homo sapiens, UniProt P01903+Q30154); type: binding
T2 construct: expressed in transfected cells; host or cells: L416.3 (fibroblasts) or GM3107

DRB1*0401 (DR4w4) = target: T3, DRB1*0401 (DR4w4) (Homo sapiens, UniProt P01903+P01911, A100K/A169T/F76Y/I96L/K127E/L162R/M171V/N62H/P40V/Q125Y/R42H/S133A/S149N/S66Y/V115G/V209L/W38E); experiment: HLA class II peptide binding assay; conditions: for DR4w4 binding data: Table XIXb; for DR4w4 binding information: unit not given
T3 construct: endogenous in cells; host or cells: Preiss
T3 sequence (P01903 26-254 partner, other chains not shown): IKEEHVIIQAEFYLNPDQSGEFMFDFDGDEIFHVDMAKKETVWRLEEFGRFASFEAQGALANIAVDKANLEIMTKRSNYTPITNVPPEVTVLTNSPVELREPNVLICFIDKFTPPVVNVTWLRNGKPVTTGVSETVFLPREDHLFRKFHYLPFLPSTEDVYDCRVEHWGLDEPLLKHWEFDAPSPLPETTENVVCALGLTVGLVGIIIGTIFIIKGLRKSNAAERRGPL

DRB1*1101 (DR5w11) = target: T4, DRB1*1101 (DR5w11) (Homo sapiens, UniProt P01903+P01911, A100R/A169T/A87E/I96F/K41T/L162R/M171V/P40S/Q125H/Q178H/Q39Y/Q99D/R42S/S66Y/T262R/V115G/W38E); experiment: biochemical; type: binding
T4 construct: endogenous in cells; host or cells: Sweig
T4 sequence (P01903 26-254, other chains not shown): as the sequence (P01903 26-254 partner, other chains not shown) above

DRB1*0101 (DR1) = target: T5, DRB1*0101 (DR1) (Homo sapiens, UniProt P01903+P01911, A100R/D57E/F55L/F60I/F76Y/I96L/L162R/M171V/P40L/Q125E/R42F/V115G/Y59C); experiment: HLA class II peptide binding assay; conditions: for DR1 binding data: Table XIXb, Malaria Super Motif Peptides With Binding Data; for DR1 binding information: unit not given
T5 construct: endogenous in cells; host or cells: LG2
T5 sequence (P01903 26-254 partner, other chains not shown): as above

DRB1*0405 (DR4w15) = target: T6, DRB1*0405 (DR4w15) (Homo sapiens, UniProt P01903+P01911, A100R/A169T/D86S/F76Y/I96L/K127E/L162R/M171V/N62H/P40V/Q125Y/R42H/S133A/S149N/S66Y/V115G/V209L/W38E); experiment: HLA class II peptide binding assay; conditions: for DR4w15 binding data: Table XIXb; for DR4w15 binding information: unit not given
T6 construct: endogenous in cells; host or cells: KT3

HLA-A*0301 = target: T7, HLA-A*0301 (Homo sapiens, UniProt P04439); experiment: HLA class I peptide binding assay; conditions: for A*0301 (binding information): Table XVI, Malaria A3 motif peptides
T7 construct: endogenous in cells; host or cells: GM3107

HLA-A*1101 = HLA-A*1101 (Homo sapiens, UniProt P04439, A114D/D185E/E176A/F33Y/L180Q/S129P/T187R); experiment: HLA class I peptide binding assay; conditions: Table XVII
DRB1*0701 (DR7) = target: T8, DRB1*0701 (DR7) (Homo sapiens, UniProt P01903+P01911, A100R/A102G/A103Q/D57E/D86V/E43K/F76Y/K127E/L162R/M171V/P40G/Q125H/Q99D/R33Q/R42Y/R54Q/S133A/S66F/T210M/V115G/Y107V/Y59L/Y89S); experiment: biochemical; type: binding
T8 construct: endogenous in cells; host or cells: Pitout

DRB1*0802 (DR8w2) = target: T9, DRB1*0802 (DR8w2) (Homo sapiens, UniProt P01903+P01911, A100R/A103L/A169T/F76Y/H45Y/I96F/K41T/L162R/M171V/P40S/Q125H/Q178H/Q39Y/Q99D/R218S/R42G/S66Y/V115G/W38E); experiment: biochemical; type: binding
T9 construct: endogenous in cells; host or cells: OLL

DRB1*0301 (DR3) = target: T10, DRB1*0301 (DR3) (Homo sapiens, UniProt P01903+P01911, A100K/A102G/A103R/A169T/F55Y/I96L/K41T/L162R/M171V/P40S/Q125H/Q178H/Q39Y/R42S/S66N/T106N/T262R/W38E/Y61H); experiment: HLA class II peptide binding assay (pH 4.5); conditions: for DR3 binding information: unit not given
T10 construct: endogenous in cells; host or cells: MAT

[1] = Malaria A11 motif peptides, HLA-A*1101 binding value, unit not given
[2] = binding value to HLA-A*0301, unit not given
[3] = malaria A11 motif peptides, binding value unit not given
[4] = DR3a motif peptides, exemplary 15-mer containing the core sequence

LETVNISDV
DR5w12 binding data (DRB1*1201 (DR5w12)): 0.0015
DR2w2β2 binding data (DRB5*0101 (DR2w2β2)): -0.0005
DR4w4 binding data (DRB1*0401 (DR4w4)): -0.0007
DR5w11 binding data (DRB1*1101 (DR5w11)): -0.0002
DR1 binding data (DRB1*0101 (DR1)): 0.0001
DR4w15 binding data (DRB1*0405 (DR4w15)): 0.0016

LGGVGLVLY
A*0301 (binding information) (HLA-A*0301; binding value for HLA-A*0301, unit not given): 0.0001
DR5w12 binding data (DRB1*1201 (DR5w12)): 0.0004
DR2w2β2 binding data (DRB5*0101 (DR2w2β2)): -0.005
A*1101 binding information (HLA-A*1101; [1]): 0.0002
DR7 binding data (DRB1*0701 (DR7)): 0.0007
DR4w4 binding data (DRB1*0401 (DR4w4)): 0.0032
DR5w11 binding data (DRB1*1101 (DR5w11)): -0.0062
DR8w2 binding data (DRB1*0802 (DR8w2)): -0.0002
DR1 binding data (DRB1*0101 (DR1)): 0.4900
DR4w15 binding data (DRB1*0405 (DR4w15)): -0.0009

LGVSENTIFLK
A*1101 binding information (HLA-A*1101; Malaria A11 motif peptides, binding value for HLA-A*1101, unit not given): 0.0063

LHEGCTSEL
DR5w12 binding data (DRB1*1201 (DR5w12)): 0.0001
DR2w2β2 binding data (DRB5*0101 (DR2w2β2)): -0.0005
DR7 binding data (DRB1*0701 (DR7)): -0.0003
DR4w4 binding data (DRB1*0401 (DR4w4)): -0.0009
DR5w11 binding data (DRB1*1101 (DR5w11)): -0.0002
DR8w2 binding data (DRB1*0802 (DR8w2)): -0.0003
DR3 binding data (DRB1*0301 (DR3); Table XIXb, DR3): -0.0041
DR1 binding data (DRB1*0101 (DR1)): 0.0001
DR4w15 binding data (DRB1*0405 (DR4w15)): -0.0014

LNKEGKLIE
DR5w12 binding information (DRB1*1201 (DR5w12); Malaria DR3b motif peptides): -0.0003
DR2w2β2 binding information (DRB5*0101 (DR2w2β2)): -0.0021
DR7 binding information (DRB1*0701 (DR7)): -0.0009
DR4w4 binding information (DRB1*0401 (DR4w4); Malaria DR3b motif peptides): -0.0017
DR5w11 binding information (DRB1*1101 (DR5w11)): -0.0005
DR8w2 binding information (DRB1*0802 (DR8w2)): -0.0007
DR3 binding information (DRB1*0301 (DR3); Malaria DR3b motif peptides): -0.0140
DR1 binding information (DRB1*0101 (DR1); Malaria DR3b motif peptides): 0.0001
DR4w15 binding information (DRB1*0405 (DR4w15); Malaria DR3b motif peptides): -0.0047

LSTNLPYGR
A*0301 (binding information) (HLA-A*0301; [2]): 0.0004
A*301 (binding data) (HLA-A*0301; Malaria A03 supermotif peptides, Table IX): 0.0004
A*1101 binding information (HLA-A*1101; [3]): 0.0100
DR7 binding data (DRB1*0701 (DR7)): 0.0005
DR4w4 binding data (DRB1*0401 (DR4w4)): 0.0120
DR1 binding data (DRB1*0101 (DR1)): 0.0012

LVTVFLIFF
DR7 binding data (DRB1*0701 (DR7)): 0.0010
DR4w4 binding data (DRB1*0401 (DR4w4)): 0.0030
DR1 binding data (DRB1*0101 (DR1)): 0.0001

NSEDRETPPH
A*1101 binding information (HLA-A*1101; [3]): 0.0002

QCEEERCPPK
A*0301 (binding information) (HLA-A*0301; [2]): 0.0004
A*1101 binding information (HLA-A*1101; [3]): 0.0002

SLYDEHRKY
A*1101 binding information (HLA-A*1101; [3]): 0.0045

SVTCGKOTFt (SVTCGKGTR)
A*1101 binding information (HLA-A*1101; [3]): 0.0009

TCGKGIRSRK
A*1101 binding information (HLA-A*1101; [3]): 0.0002

VDELSEDTK
A*1101 binding information (HLA-A*1101; [3]): 0.0002

VDLYLLMDC
DR5w12 binding data (DRB1*1201 (DR5w12)): 0.0001
DR2w2β2 binding data (DRB5*0101 (DR2w2β2)): -0.0005
DR7 binding data (DRB1*0701 (DR7)): -0.0003
DR4w4 binding data (DRB1*0401 (DR4w4)): 0.0028
DR5w11 binding data (DRB1*1101 (DR5w11)): -0.0002
DR8w2 binding data (DRB1*0802 (DR8w2)): -0.0003
DR1 binding data (DRB1*0101 (DR1)): 0.0001
DR4w15 binding data (DRB1*0405 (DR4w15)): -0.0009

VEKTASCGV
DR5w12 binding data (DRB1*1201 (DR5w12)): 0.0001
DR2w2β2 binding data (DRB5*0101 (DR2w2β2)): -0.0009
DR7 binding data (DRB1*0701 (DR7)): 0.0095
DR4w4 binding data (DRB1*0401 (DR4w4)): 0.0021
DR5w11 binding data (DRB1*1101 (DR5w11)): -0.0002
DR8w2 binding data (DRB1*0802 (DR8w2)): 0.0005
DR1 binding data (DRB1*0101 (DR1)): 0.0004
DR4w15 binding data (DRB1*0405 (DR4w15)): -0.0009

VLYNTEXGRH
A*1101 binding information (HLA-A*1101; [1]): 0.0002

VPSDVPKNP
DR4w4 binding information (DRB1*0401 (DR4w4); [4]): -0.0130

VWDEWSPCS
DR5w12 binding information (DRB1*1201 (DR5w12); [4]): 0.0001
DR2w2β2 binding information (DRB5*0101 (DR2w2β2)): -0.0005
DR7 binding information (DRB1*0701 (DR7)): -0.0003
DR4w4 binding information (DRB1*0401 (DR4w4); [4]): -0.0009
DR5w11 binding information (DRB1*1101 (DR5w11)): -0.0002
DR8w2 binding information (DRB1*0802 (DR8w2)): -0.0003
DR3 binding information (DRB1*0301 (DR3); [4]): -0.0041
DR1 binding information (DRB1*0101 (DR1); [4]): 0.0001
DR4w15 binding information (DRB1*0405 (DR4w15); [4]): -0.0009

WSPCSVTCGK
A*1101 binding information (HLA-A*1101; [3]): 0.0002

YDNAGINLY
DR5w12 binding data (DRB1*1201 (DR5w12)): 0.0001
DR2w2β2 binding data (DRB5*0101 (DR2w2β2)): -0.0005
DR7 binding data (DRB1*0701 (DR7)): -0.0003
DR4w4 binding data (DRB1*0401 (DR4w4)): -0.0009
DR5w11 binding data (DRB1*1101 (DR5w11)): -0.0002
DR8w2 binding data (DRB1*0802 (DR8w2)): -0.0003
DR1 binding data (DRB1*0101 (DR1)): 0.0003
DR4w15 binding data (DRB1*0405 (DR4w15)): -0.0009

YKFVVPGAA
DR5w12 binding data (DRB1*1201 (DR5w12)): 0.3500
DR4w4 binding data (DRB1*0401 (DR4w4)): 1.0000
DR8w2 binding data (DRB1*0802 (DR8w2)): 2.5000
